# B1: KLHL14 (parent)
# chain: WLYCYDPVMDVWARKQDMNTKRAI
# Variants of: B1
# Test: protein stability index of a GFP-peptide fusion (GPS, HEK-293T) (PSI 1-6); higher = more stable
# Conditions: c terminus: a fixed tail appended
# 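Also: lentivirally expressed fusions sorted by FACS into six bins by GFP to DsRed ratio, PSI derived from sequencing read proportions per bin multiplied by bin number.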
row,Variant,protein stability index
1,WLYCYDPYMDVWARKQDMNTKRAI [V8Y],2.14
2,WLYCYDPNMDVWARKQDMNTKRAI [V8N],1.75
3,WLYCYDPTMDVWARKQDMNTKRAI [V8T],2.45
4,WLYCYDPMMDVWARKQDMNTKRAI [V8M],2.26
5,WLYCYDPAMDVWARKQDMNTKRAI [V8A],1.76
6,WLYCYDPGMDVWARKQDMNTKRAI [V8G],1.58
7,WLYCYDPLMDVWARKQDMNTKRAI [V8L],2.25
8,WLYCYDPPMDVWARKQDMNTKRAI [V8P],1.8
9,WLYCYDPDMDVWARKQDMNTKRAI [V8D],2.37
10,WLYCYDPFMDVWARKQDMNTKRAI [V8F],2.18
11,WLYCYDPKMDVWARKQDMNTKRAI [V8K],1.88
12,WLYCYDPWMDVWARKQDMNTKRAI [V8W],1.95
13,WLYCYDPHMDVWARKQDMNTKRAI [V8H],2.34
14,WLYCYDPRMDVWARKQDMNTKRAI [V8R],1.92
15,WLYCYDPQMDVWARKQDMNTKRAI [V8Q],1.78
16,WLYCYDPEMDVWARKQDMNTKRAI [V8E],2.17
17,WLYCYDPIMDVWARKQDMNTKRAI [V8I],2.03
18,WLYCYDPSMDVWARKQDMNTKRAI [V8S],1.89
19,WLYCYDPCMDVWARKQDMNTKRAI [V8C],1.81
20,WCYCYDPVMDVWARKQDMNTKRAI [L2C],2.18
21,WIYCYDPVMDVWARKQDMNTKRAI [L2I],1.84
22,WDYCYDPVMDVWARKQDMNTKRAI [L2D],2.52
23,WVYCYDPVMDVWARKQDMNTKRAI [L2V],2.16
24,WWYCYDPVMDVWARKQDMNTKRAI [L2W],1.56

row,Variant,protein stability index
1,WTYCYDPVMDVWARKQDMNTKRAI [L2T],2.11
2,WMYCYDPVMDVWARKQDMNTKRAI [L2M],1.9
3,WFYCYDPVMDVWARKQDMNTKRAI [L2F],1.45
4,WRYCYDPVMDVWARKQDMNTKRAI [L2R],2.06
5,WPYCYDPVMDVWARKQDMNTKRAI [L2P],2.13
6,WHYCYDPVMDVWARKQDMNTKRAI [L2H],2.35
7,WKYCYDPVMDVWARKQDMNTKRAI [L2K],2.29
8,WNYCYDPVMDVWARKQDMNTKRAI [L2N],2.19
9,WYYCYDPVMDVWARKQDMNTKRAI [L2Y],2.52
10,WEYCYDPVMDVWARKQDMNTKRAI [L2E],2.61
11,WSYCYDPVMDVWARKQDMNTKRAI [L2S],2.39
12,WQYCYDPVMDVWARKQDMNTKRAI [L2Q],2.55
13,WGYCYDPVMDVWARKQDMNTKRAI [L2G],2.29
14,WLYCYDPVMQVWARKQDMNTKRAI [D10Q],2.74
15,WLYCYDPVMKVWARKQDMNTKRAI [D10K],3.09
16,WLYCYDPVMTVWARKQDMNTKRAI [D10T],1.69
17,WLYCYDPVMWVWARKQDMNTKRAI [D10W],2.71
18,WLYCYDPVMSVWARKQDMNTKRAI [D10S],1.99
19,WLYCYDPVMFVWARKQDMNTKRAI [D10F],1.54
20,WLYCYDPVMHVWARKQDMNTKRAI [D10H],2.11
21,WLYCYDPVMMVWARKQDMNTKRAI [D10M],1.59
22,WLYCYDPVMNVWARKQDMNTKRAI [D10N],2.1
23,WLYCYDPVMPVWARKQDMNTKRAI [D10P],1.72
24,WLYCYDPVMRVWARKQDMNTKRAI [D10R],2.34

row,Variant,protein stability index
1,WLYCYDPVMEVWARKQDMNTKRAI [D10E],2.19
2,WLYCYDPVMLVWARKQDMNTKRAI [D10L],2.82
3,WLYCYDPVMGVWARKQDMNTKRAI [D10G],2.77
4,WLYCYDPVMYVWARKQDMNTKRAI [D10Y],1.92
5,WLYCYDPVMIVWARKQDMNTKRAI [D10I],1.8
6,WLYCYDPVMAVWARKQDMNTKRAI [D10A],1.88
7,WLYCYDPVMCVWARKQDMNTKRAI [D10C],1.91
8,WLYCYDPVMVVWARKQDMNTKRAI [D10V],1.52
9,WLYCYDPVMDVCARKQDMNTKRAI [W12C],2.09
10,WLYCYDPVMDVAARKQDMNTKRAI [W12A],1.89
11,WLYCADPVMDVWARKQDMNTKRAI [Y5A],1.92
12,WLYCWDPVMDVWARKQDMNTKRAI [Y5W],1.44
13,WLYCRDPVMDVWARKQDMNTKRAI [Y5R],2.26
14,WLYCEDPVMDVWARKQDMNTKRAI [Y5E],2.23
15,WLYCTDPVMDVWARKQDMNTKRAI [Y5T],1.83
16,WLYCHDPVMDVWARKQDMNTKRAI [Y5H],1.91
17,WLYCQDPVMDVWARKQDMNTKRAI [Y5Q],1.6
18,WLYCLDPVMDVWARKQDMNTKRAI [Y5L],2.24
19,WLYCNDPVMDVWARKQDMNTKRAI [Y5N],2.08
20,WLYCCDPVMDVWARKQDMNTKRAI [Y5C],2.25
21,WLYCDDPVMDVWARKQDMNTKRAI [Y5D],2.61
22,WLYCPDPVMDVWARKQDMNTKRAI [Y5P],2.9
23,WLYCMDPVMDVWARKQDMNTKRAI [Y5M],1.92
24,WLYCVDPVMDVWARKQDMNTKRAI [Y5V],1.98

row,Variant,protein stability index
1,WLYCSDPVMDVWARKQDMNTKRAI [Y5S],2.46
2,WLYCGDPVMDVWARKQDMNTKRAI [Y5G],2.43
3,WLYCIDPVMDVWARKQDMNTKRAI [Y5I],1.93
4,WLYCKDPVMDVWARKQDMNTKRAI [Y5K],2.46
5,WLYCFDPVMDVWARKQDMNTKRAI [Y5F],2.31
6,WLYCYGPVMDVWARKQDMNTKRAI [D6G],2.9
7,WLYCYWPVMDVWARKQDMNTKRAI [D6W],3.19
8,WLYCYAPVMDVWARKQDMNTKRAI [D6A],3.01
9,WLYCYMPVMDVWARKQDMNTKRAI [D6M],2.33
10,WLYCYNPVMDVWARKQDMNTKRAI [D6N],1.78
11,WLYCYVPVMDVWARKQDMNTKRAI [D6V],2.23
12,WLYCYTPVMDVWARKQDMNTKRAI [D6T],2.47
13,WLYCYQPVMDVWARKQDMNTKRAI [D6Q],2.29
14,WLYCYEPVMDVWARKQDMNTKRAI [D6E],1.74
15,WLYCYPPVMDVWARKQDMNTKRAI [D6P],1.84
16,WLYCYIPVMDVWARKQDMNTKRAI [D6I],1.83
17,WLYCYFPVMDVWARKQDMNTKRAI [D6F],2.99
18,WLYCYSPVMDVWARKQDMNTKRAI [D6S],1.7
19,WLYCYCPVMDVWARKQDMNTKRAI [D6C],2.14
20,WLYCYKPVMDVWARKQDMNTKRAI [D6K],2.11
21,WLYCYHPVMDVWARKQDMNTKRAI [D6H],2.6
22,WLYCYRPVMDVWARKQDMNTKRAI [D6R],1.4

# Reference: the supplement of paper PMC10567573
